Measurements taken from publication PMC4754353.

Biological target: Nrp1 immobilized on the BLI biosensor (UniProt Q9QWJ9)
Test: BLI

Row | Kd [µM] | Substance
1 | 0.0298 | human glycyl-tRNA synthetase L129P mutant (L129P-GlyRS^CMT2D), non-tagged (enzyme)
2 | 0.209 | human glycyl-tRNA synthetase P234KY mutant (P234KY-GlyRS^CMT2D), non-tagged (enzyme)
